This note sets out measurements from publication PMC5207133.

Read-outs that look alike come from different tables or passages of the source.

The target in data set [1] is T1, Ku70/80 heterodimer (human (HeLa cells), UniProt P12956;P13010 1-609;1-732). To be noted: protein: native; copies: 1;1; label: 3'-FAM on strand 2; blunt.
The target in data set [2] is T2, Ku70/80 heterodimer;DNA-PKcs;APLF (human (HeLa cells);human (HeLa …, UniProt P12956;P13010;P78527;Q8IW19 1-609;1-732;1-4128;1-511, ||)). The following applies: protein: native;native;recombinant; tags: ;;GST removed by PreScission protease; copies: 1;1;1;1; label: 3'-FAM on strand 2; blunt.
In data set [3] the target is T3, Ku70/80 heterodimer;APLF (human (HeLa cells);human, UniProt P12956;P13010;Q8IW19 1-609;1-732;1-511, |). To be noted: protein: native;recombinant, tags: ;GST removed by PreScission protease, copies: 1;1;1, blunt.
Data set [4] addresses T4, Ku70/80 heterodimer;DNA-PKcs (human (HeLa cells);human (HeLa cells), UniProt P12956;P13010;P78527 1-609;1-732;1-4128, |). The following applies: protein: native;native, tags: ;, copies: 1;1;1, blunt.
The target of data set [5] is T1, Ku70/80 heterodimer. To be noted: protein: native; copies: 1;1; label: 3'-FAM on strand 1; blunt.
Data set [6] concerns the target T5, APLF (human, UniProt Q8IW19 1-511). To be noted: protein: recombinant; tags: GST removed by PreScission protease; label: 3'-FAM on strand 1; blunt.
Data set [7] concerns the target T2, Ku70/80 heterodimer;DNA-PKcs;APLF. To be noted: protein: native;native;recombinant; tags: ;;GST removed by PreScission protease; copies: 1;1;1;1; label: 3'-FAM on strand 1; blunt.
Data set [8] has the same target. To be noted: protein: native;native;recombinant; tags: ;;GST removed by PreScission protease; copies: 1;1;1;1; 20-bp duplex with stem-loop at one end and 5-nt overhang at the other.
Data set [9] concerns the target T4, Ku70/80 heterodimer;DNA-PKcs. The following applies: protein: native;native; tags: ;; copies: 1;1;1; 20-bp duplex with stem-loop at one end and 5-nt overhang at the other.
For data set [10], the target named is T1, Ku70/80 heterodimer. The following applies: protein: native; copies: 1;1; 20-bp duplex with stem-loop at one end and 5-nt overhang at the other.
For data set [11], the target named is T5, APLF. To be noted: protein: recombinant; tags: GST removed by PreScission protease; 20-bp duplex with stem-loop at one end and 5-nt overhang at the other.
Data set [12] concerns the target Ku70/80 heterodimer;XRCC4-DNA ligase IV (X4L4) (human (HeLa cells);human, UniProt P12956;P13010;Q13426;P49917 1-609;1-732;1-336;1-911, |). The following applies: protein: native;recombinant; tags: ;; copies: 1;1;2;1; 20-bp duplex with stem-loop at one end and 5-nt overhang at the other.
Data set [13] deals with XRCC4-DNA ligase IV (X4L4) (human, UniProt Q13426;P49917 1-336;1-911). To be noted: protein: recombinant; chain copies: 2;1; 20-bp duplex with stem-loop at one end and 5-nt overhang at the other.
Data set [14] has as its target T6, Ku70/80 heterodimer;XRCC4-DNA ligase IV (X4L4);APLF (human (HeLa cells);human;human, UniProt P12956;P13010;Q13426;P49917;Q8IW19 1-609;1-732;1-336;1-911;1-511, ||). The following applies: protein: native;recombinant;recombinant; tags: ;;GST removed by PreScission protease; copies: 1;1;2;1;1; 20-bp duplex with stem-loop at one end and 5-nt overhang at the other.
For data set [15], the target named is T3, Ku70/80 heterodimer;APLF. To be noted: protein: native;recombinant; tags: ;GST removed by PreScission protease; copies: 1;1;1; 20-bp duplex with stem-loop at one end and 5-nt overhang at the other.
Data set [16] concerns the target T6, Ku70/80 heterodimer;XRCC4-DNA ligase IV …. To be noted: protein: native;recombinant;recombinant; tags: ;;GST removed by PreScission protease; copies: 1;1;2;1;1; two stem-loop duplexes (strands 1+2, 3+4) annealing via complementary 10-nt A/T overhangs.

T1 sequence (P12956 whole entry, chain 1 of 2): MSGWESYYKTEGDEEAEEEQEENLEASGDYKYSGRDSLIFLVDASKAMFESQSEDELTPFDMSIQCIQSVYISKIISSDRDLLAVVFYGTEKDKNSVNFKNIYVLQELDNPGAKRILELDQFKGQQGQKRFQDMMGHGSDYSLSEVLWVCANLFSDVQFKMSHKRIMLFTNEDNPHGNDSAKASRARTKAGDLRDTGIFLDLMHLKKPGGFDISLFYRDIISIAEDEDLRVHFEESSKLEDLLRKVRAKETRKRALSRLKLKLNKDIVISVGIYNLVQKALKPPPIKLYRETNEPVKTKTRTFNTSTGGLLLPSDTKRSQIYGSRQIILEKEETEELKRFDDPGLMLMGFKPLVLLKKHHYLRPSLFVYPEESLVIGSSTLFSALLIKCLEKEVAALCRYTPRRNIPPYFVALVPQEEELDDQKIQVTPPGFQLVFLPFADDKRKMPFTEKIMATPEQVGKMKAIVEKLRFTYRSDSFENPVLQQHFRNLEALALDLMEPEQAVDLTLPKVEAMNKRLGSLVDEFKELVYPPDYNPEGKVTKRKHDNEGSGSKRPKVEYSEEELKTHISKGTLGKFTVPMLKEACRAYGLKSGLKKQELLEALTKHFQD
T1 sequence (P13010 whole entry, chain 2 of 2): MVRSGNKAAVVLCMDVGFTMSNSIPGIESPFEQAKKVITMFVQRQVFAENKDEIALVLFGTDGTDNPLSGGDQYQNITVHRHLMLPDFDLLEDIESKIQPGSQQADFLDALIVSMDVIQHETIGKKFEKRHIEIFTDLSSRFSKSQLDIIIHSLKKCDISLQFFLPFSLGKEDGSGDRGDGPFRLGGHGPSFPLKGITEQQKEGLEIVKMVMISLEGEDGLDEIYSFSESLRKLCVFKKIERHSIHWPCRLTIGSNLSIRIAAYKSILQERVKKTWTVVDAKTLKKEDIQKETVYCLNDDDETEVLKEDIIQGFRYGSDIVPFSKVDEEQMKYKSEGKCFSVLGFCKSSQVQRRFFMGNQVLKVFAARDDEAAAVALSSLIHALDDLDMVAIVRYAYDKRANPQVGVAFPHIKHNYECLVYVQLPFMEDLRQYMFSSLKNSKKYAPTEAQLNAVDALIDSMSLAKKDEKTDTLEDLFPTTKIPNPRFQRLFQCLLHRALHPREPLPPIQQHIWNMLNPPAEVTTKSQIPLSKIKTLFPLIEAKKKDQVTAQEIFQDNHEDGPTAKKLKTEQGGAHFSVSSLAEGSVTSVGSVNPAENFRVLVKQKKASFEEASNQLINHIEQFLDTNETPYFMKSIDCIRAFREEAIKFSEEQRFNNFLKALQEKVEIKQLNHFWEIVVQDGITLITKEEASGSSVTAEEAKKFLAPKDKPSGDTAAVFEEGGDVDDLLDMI
T3 sequence (P12956 whole entry, chain 1 of 3): as the sequence (P12956 whole entry, chain 1 of 2) above
T3 sequence (P13010 whole entry, chain 2 of 3): as the sequence (P13010 whole entry, chain 2 of 2) above
T3 sequence (Q8IW19 whole entry, chain 3 of 3): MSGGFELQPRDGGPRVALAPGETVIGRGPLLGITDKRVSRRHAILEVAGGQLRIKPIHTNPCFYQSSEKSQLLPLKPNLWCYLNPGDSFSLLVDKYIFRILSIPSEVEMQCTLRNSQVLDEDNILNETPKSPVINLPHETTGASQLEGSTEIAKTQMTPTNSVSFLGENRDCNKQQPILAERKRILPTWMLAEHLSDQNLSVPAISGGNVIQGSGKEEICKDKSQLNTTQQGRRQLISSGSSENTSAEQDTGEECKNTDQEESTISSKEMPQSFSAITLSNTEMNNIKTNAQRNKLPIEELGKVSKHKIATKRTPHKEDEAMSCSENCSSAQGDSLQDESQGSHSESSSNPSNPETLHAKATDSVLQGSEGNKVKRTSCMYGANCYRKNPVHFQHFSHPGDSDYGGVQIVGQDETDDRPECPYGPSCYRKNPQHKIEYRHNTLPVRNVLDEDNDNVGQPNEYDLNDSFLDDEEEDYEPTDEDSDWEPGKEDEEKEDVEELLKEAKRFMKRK
Chain of Ku70/80 heterodimer;XRCC4-DNA ligase IV (X4L4) (P12956 whole entry, chain 1 of 4): as the sequence (P12956 whole entry, chain 1 of 2) above
Chain of Ku70/80 heterodimer;XRCC4-DNA ligase IV (X4L4) (P13010 whole entry, chain 2 of 4): as the sequence (P13010 whole entry, chain 2 of 2) above
Chain of Ku70/80 heterodimer;XRCC4-DNA ligase IV (X4L4) (Q13426 whole entry, chain 3 of 4): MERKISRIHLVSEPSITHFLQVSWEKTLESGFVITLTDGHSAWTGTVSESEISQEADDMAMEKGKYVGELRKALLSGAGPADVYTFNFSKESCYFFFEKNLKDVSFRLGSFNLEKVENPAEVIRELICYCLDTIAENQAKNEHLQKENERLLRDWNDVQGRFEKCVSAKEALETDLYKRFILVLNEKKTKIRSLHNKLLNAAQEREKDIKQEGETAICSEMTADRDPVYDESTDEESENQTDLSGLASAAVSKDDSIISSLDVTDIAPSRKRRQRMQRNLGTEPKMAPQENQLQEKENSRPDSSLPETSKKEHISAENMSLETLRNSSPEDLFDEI
Chain of Ku70/80 heterodimer;XRCC4-DNA ligase IV (X4L4) (P49917 whole entry, chain 4 of 4): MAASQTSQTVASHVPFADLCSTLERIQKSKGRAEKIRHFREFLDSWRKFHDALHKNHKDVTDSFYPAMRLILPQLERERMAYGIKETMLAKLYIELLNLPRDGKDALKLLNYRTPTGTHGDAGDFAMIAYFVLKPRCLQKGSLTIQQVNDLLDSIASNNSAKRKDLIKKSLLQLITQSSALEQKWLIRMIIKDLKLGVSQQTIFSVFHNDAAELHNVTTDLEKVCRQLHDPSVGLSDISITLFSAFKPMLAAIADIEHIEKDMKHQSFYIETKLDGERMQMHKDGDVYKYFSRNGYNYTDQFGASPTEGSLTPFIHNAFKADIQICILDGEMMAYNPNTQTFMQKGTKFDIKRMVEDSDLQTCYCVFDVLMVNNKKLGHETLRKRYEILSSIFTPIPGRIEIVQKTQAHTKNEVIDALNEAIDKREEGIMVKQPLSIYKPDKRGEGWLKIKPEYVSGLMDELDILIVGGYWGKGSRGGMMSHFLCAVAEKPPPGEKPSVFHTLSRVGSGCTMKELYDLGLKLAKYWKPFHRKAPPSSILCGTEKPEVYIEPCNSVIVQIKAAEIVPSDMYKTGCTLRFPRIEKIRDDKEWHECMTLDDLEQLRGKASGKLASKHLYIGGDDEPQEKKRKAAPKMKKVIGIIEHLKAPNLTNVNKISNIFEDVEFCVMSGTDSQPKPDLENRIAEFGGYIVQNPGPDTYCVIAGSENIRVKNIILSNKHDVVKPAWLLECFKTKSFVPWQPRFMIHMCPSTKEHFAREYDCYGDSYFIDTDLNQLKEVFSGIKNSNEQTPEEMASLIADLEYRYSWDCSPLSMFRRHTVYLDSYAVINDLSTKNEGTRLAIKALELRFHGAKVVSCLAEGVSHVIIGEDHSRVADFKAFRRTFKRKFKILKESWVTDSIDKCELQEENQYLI
Chain of XRCC4-DNA ligase IV (X4L4) (Q13426 whole entry, chain 1 of 2): as the sequence (Q13426 whole entry, chain 3 of 4) above
Chain of XRCC4-DNA ligase IV (X4L4) (P49917 whole entry, chain 2 of 2): as the sequence (P49917 whole entry, chain 4 of 4) above

B1: 25bpDNA 3'-FAM (dsDNA)
DNA 1: AGCATTGACTGGCATCGTAGCATCC
DNA 2: GGATGCTACGATGCCAGTCAATGCT
Turning to B1, the binding result (in the data set with Ku70/80 heterodimer [1]; in data set [2]; in the data set with Ku70/80 heterodimer;APLF [3] (label: 3'-FAM on strand 2); in data set [4] (label: 3'-FAM on strand 2)) was “binds” each time.

B2: 40bpDNA 3'-FAM (dsDNA)
DNA 1: GGATACACAACAGACCGCAACACTCAGATTACTTTTCGCC
DNA 2: GGCGAAAAGTAATCTGAGTGTTGCGGTCTGTTGTGTATCC
B2: the binding result with Ku70/80 heterodimer [5] is “binds”; with APLF [6], “no binding”; in the data set with Ku70/80 heterodimer;APLF [3] (label: 3'-FAM on strand 1) it was “binds”; in [4] (label: 3'-FAM on strand 1) it was “binds”; in [7], “binds”.

B3: 20bpDNA (stem-loop A) (structured_DNA)
DNA 1: CCCACCCAAAAATCAATAATCGACCCTTTCGACCCGCGC
DNA 2: GCGCGGGTTATTTGATTTTTGGGTGGGGTCGA
As to B3, the binding result in data set [8] is reported as “binds”; in data set [9] it was “binds”; with Ku70/80 heterodimer [10] it was “binds”; in the data set with APLF [11], “no binding”; in [12], “binds”; in data set [13], “no binding”. Further, the binding result (in data set [14]; with Ku70/80 heterodimer;APLF [15]) was “binds” in each case.

B4: 20bpDNA-10nt (stem-loop B plus complementary stem-loop) (structured_DNA)
DNA 1: CCCACCCAAAAATCAATAATCGACCCTTTCGACCCGCGC
DNA 2: GCGCGGGTTATTTGATTTTTGGGTGGGAAAAAAAAAA
DNA 3: TTTTTTTTTTCCCACCCAAAAATCAAATAATCGACCCTTTCGACCCGCGC
DNA 4: GCGCGGGTTATTTGATTTTTGGGTGGG
B4: the binding result in [16] is given as “binds”.
